Experimental data from patent US20120288878A1.

What was measured:
[1] = biological target: mutant membrane-bound TNFα on stably transfected CHO cells (B-220 cells) (UniProt P01375); assay: FACS, gate P4: CHO cells bound to anti-CD19 beads (FIG. 3 middle panel)
[2] = biological target: mutant membrane-bound TNFα on stably transfected CHO cells (B-220 cells) (UniProt P01375); assay: FACS, gate P4: CHO cells bound to anti-CD19 beads, mixed beads (FIG. 4)

UniProt P01375, sequence (P01375 other isoform, or with tags, fused parts or gaps mutant limits assumed): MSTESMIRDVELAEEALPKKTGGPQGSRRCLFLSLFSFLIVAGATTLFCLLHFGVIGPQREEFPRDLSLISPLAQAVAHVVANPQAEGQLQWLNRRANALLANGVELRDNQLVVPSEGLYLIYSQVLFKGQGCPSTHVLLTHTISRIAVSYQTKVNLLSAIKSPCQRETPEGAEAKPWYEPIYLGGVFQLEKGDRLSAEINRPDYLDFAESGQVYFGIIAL

APC-labeled unrelated antibody (anti-CD19) coated on beads
# Events [1]: 6 events
# Events [2]: 2 events
